This is an account of results in publication PMC5737217 (Nucleic Acids Research, 2017).

Series [1] deals with the molecule itself. As to the kind of experiment: non-reducing SDS-PAGE.
The target in series [2] is tSTATcc (truncated STAT1, C-C dimer) (UniProt P42224 132-713, A656C;N658C). Nature of the series: Spec-seq.
In series [3] the target is tSTATcc-N460H (UniProt P42224 132-713, N460H;A656C;N658C). As to the kind of experiment: Spec-seq.
Chain of tSTATcc-N460H (P42224 132-713 N460H/A656C/N658C): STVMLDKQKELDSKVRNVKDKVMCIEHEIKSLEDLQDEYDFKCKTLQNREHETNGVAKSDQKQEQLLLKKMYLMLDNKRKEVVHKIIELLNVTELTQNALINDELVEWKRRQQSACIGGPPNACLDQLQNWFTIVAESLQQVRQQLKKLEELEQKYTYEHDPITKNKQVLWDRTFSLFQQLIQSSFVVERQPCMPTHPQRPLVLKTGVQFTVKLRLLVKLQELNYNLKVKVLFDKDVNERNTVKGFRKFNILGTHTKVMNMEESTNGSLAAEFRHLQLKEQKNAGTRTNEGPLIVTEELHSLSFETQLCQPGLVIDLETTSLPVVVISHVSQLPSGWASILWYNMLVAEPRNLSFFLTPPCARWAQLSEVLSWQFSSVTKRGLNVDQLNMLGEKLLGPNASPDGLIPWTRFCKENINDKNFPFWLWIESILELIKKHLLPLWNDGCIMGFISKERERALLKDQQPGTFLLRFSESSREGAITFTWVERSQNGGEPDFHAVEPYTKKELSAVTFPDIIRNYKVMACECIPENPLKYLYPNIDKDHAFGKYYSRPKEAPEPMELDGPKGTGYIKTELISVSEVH

B1: tSTATcc (truncated STAT1α, amino acids 132–713, with A656C and N658C) (domain or fragment, UniProt P42224 132-713, looked up)
chain: STVMLDKQKELDSKVRNVKDKVMCIEHEIKSLEDLQDEYDFKCKTLQNREHETNGVAKSDQKQEQLLLKKMYLMLDNKRKEVVHKIIELLNVTELTQNALINDELVEWKRRQQSACIGGPPNACLDQLQNWFTIVAESLQQVRQQLKKLEELEQKYTYEHDPITKNKQVLWDRTFSLFQQLIQSSFVVERQPCMPTHPQRPLVLKTGVQFTVKLRLLVKLQELNYNLKVKVLFDKDVNERNTVKGFRKFNILGTHTKVMNMEESTNGSLAAEFRHLQLKEQKNAGTRTNEGPLIVTEELHSLSFETQLCQPGLVIDLETTSLPVVVISNVSQLPSGWASILWYNMLVAEPRNLSFFLTPPCARWAQLSEVLSWQFSSVTKRGLNVDQLNMLGEKLLGPNASPDGLIPWTRFCKENINDKNFPFWLWIESILELIKKHLLPLWNDGCIMGFISKERERALLKDQQPGTFLLRFSESSREGAITFTWVERSQNGGEPDFHAVEPYTKKELSAVTFPDIIRNYKVMACECIPENPLKYLYPNIDKDHAFGKYYSRPKEAPEPMELDGPKGTGYIKTELISVSEVH
Broadly, the stoichiometry N is the number of molecules, sites or subunits per partner or assembly. Consider B1, for which the “stoichiometry N” value in series [1] was found to be 2.

B2: 1C_GAS (dsDNA)
DNA 1: GCTGCCACTAGAGTTTTTTCGGGAAAAGATCATCAAGAGCACACGGG
DNA 2: CCCGTGTGCTCTTGATGATCTTTTCCCGAAAAAACTCTAGTGGCAGC
Regarding B2, the binding signal in series [2] was 1.6 kT (ddG vs 2C_GAS); in series [3], 1.8 kT (ddG vs 2C_GAS).

B3: 0T_GAS (dsDNA)
DNA 1: GCTGCCACTAGAGTTTTTTTAGGAAAAGATCATCAAGAGCACACGGG
DNA 2: CCCGTGTGCTCTTGATGATCTTTTCCTAAAAAAACTCTAGTGGCAGC
On to B3, for which the figures for the binding signal in series [2] and in series [3] were 1.5 kT (ddG vs 2C_GAS) and 1.8 kT (ddG vs 2C_GAS), respectively.

B4: 1T_GAS (dsDNA)
DNA 1: GCTGCCACTAGAGTTTTTCTAGGAAAAGATCATCAAGAGCACACGGG
DNA 2: CCCGTGTGCTCTTGATGATCTTTTCCTAGAAAAACTCTAGTGGCAGC
Turning to B4, the binding signal in series [2] and in series [3] was 1.7 kT (ddG vs 2C_GAS) each time.

B5: 3C_GAS (dsDNA)
DNA 1: GCTGCCACTAGAGTTTTCCCGGGAAAAGATCATCAAGAGCACACGGG
DNA 2: CCCGTGTGCTCTTGATGATCTTTTCCCGGGAAAACTCTAGTGGCAGC
B5: the binding signal in series [2] and in series [3] was 1.6 kT (ddG vs 2C_GAS) each time.

B6: 2T_GAS (dsDNA)
DNA 1: GCTGCCACTAGAGTTTTCCTAGGAAAAGATCATCAAGAGCACACGGG
DNA 2: CCCGTGTGCTCTTGATGATCTTTTCCTAGGAAAACTCTAGTGGCAGC
B6: the binding signal in series [2] is 1.9 kT (ddG vs 2C_GAS); in series [3], 1.7 kT (ddG vs 2C_GAS).
